Literature values, collected in paper PMC6586500.

Molecular target: Histone H3K9me3 peptide (Homo sapiens) (UniProt P68431)

Chain of CBX5 (P45973 whole entry): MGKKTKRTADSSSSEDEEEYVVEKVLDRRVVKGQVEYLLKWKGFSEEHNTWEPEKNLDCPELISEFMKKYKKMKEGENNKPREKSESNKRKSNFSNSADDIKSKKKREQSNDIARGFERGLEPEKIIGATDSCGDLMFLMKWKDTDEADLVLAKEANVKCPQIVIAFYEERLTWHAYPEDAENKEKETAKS

CBX5 (from UniProt P45973)
Kd: 30 µM
